Ends that are not written are not given here. * marks the point of attachment. Galloyl = O=C(c1cc(O)c(O)c(O)c1)*
T1: human P-selectin IgG-Fc chimera (human, UniProt P16109)
T1 chain: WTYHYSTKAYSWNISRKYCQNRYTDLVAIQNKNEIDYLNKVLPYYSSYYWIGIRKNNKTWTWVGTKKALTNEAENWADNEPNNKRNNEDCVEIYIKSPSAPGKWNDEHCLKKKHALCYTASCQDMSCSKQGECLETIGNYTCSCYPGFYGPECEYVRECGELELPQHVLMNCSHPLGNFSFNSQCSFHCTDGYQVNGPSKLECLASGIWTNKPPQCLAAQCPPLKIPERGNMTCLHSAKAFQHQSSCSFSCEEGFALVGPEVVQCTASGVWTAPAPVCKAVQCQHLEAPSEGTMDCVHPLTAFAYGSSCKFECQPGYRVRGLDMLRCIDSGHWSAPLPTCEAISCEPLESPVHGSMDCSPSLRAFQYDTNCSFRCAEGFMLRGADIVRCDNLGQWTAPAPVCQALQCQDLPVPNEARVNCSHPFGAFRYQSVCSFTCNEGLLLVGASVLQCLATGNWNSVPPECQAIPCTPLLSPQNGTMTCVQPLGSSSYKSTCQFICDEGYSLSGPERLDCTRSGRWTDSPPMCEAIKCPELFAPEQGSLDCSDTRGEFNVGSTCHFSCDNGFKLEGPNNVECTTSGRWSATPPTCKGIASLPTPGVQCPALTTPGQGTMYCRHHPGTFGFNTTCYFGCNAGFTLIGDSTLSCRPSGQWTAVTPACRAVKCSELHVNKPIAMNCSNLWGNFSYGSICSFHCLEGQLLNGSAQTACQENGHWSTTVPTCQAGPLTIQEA


Target: T1, human P-selectin IgG-Fc chimera
Test: competition ELISA

IC50 [µM]	Binder
28	KWVDV [A130]
0.031	Galloyl-EWVDV [Compound 13 (GA-EWVDV)]
27	AWVDV [A131]
8	EWVDV [A29]
2	CDVEWVDVSSLEWDLPC [TM11]
16	DWVDV [A129]
0.037	Galloyl-WVDV [Compound 12 (GA-WVDV)]

Target: T1, human P-selectin IgG-Fc chimera
Test: competition ELISA
Remark: another data set of the same source

IC50 [µM]	Binder
0.0371	Galloyl-WVDV [Compound 12 (GA-WVDV)]
